Reference: patent US20090257987A1, “Method of generating dopamine-secreting cells” (Ramot At Tel Aviv University Ltd., priority 2008, published 2009)

Columns and labels:
human MSCs [1] = assay: Western blot analysis of TH protein expression after differentiation protocols; type: cell-based; details: result in words
Procedure: MSC isolation, culture, and characterization: Fresh bone marrow aspirates harvested from the iliac crests of adult donors (age 19-76) were diluted with Hanks' balanced salt solution. Mononuclear cells were isolated by centrifugation in Unisep-Maxi tubes (Novamed, Jerusalem, Israel) by density gradient. The cells were then plated in Dulbecco's Modified Eagle's Medium (DMEM) supplemented with 15% fetal bovine serum (FBS), 2 mM glutamine, 100 μg/ml streptomycin, 100 units/ml penicillin, 12.5 units/ml nystatin (Biological Industries, Beit HaEmek, Israel) in polystyrene plastic 75-cm^2 tissue-culture flasks. After 24 hours, nonadherent cells were removed. The medium was changed every 3-4 days. Adherent cells were cultured to 70%-90% confluence and reseeded at a density of 5,000-10,000 cells/cm^2. The cells were maintained at 37° C. in a humidified 5% CO2 incubator. The MSCs were characterized for their cell-surface phenotype and their mesenchymal differentiation capacity, as previously described (Blondheim er al., 2006, Stem Cells Dev 15:141-164).
Induction of differentiation: The differentiation protocol was composed of 2 steps. In step 1, cells were transferred to serum-free medium (DMEM) supplemented with 2 mM glutamine, 100 μg/ml streptomycin, 100 units/ml penicillin, 12.5 units/ml nystatin (Biological Industries), N2 supplement (Invitrogen, New Haven, Conn.) and 20 ng/ml fibroblast growth factor 2 and epidermal growth factor (both from R&D Systems, Minneapolis, Minn.) for 48-72 hours. In step 2, the medium was changed to Basic induction medium containing Neurobasal, B27 (both from Invitrogen), in addition to 1 mM dibutyryl cyclic AMP (dbcAMP), 3-isobutyl-1-methyl-xanthine (IBMX), and 200 μM ascorbic acid (all from Sigma, St Louis, Mo.). The following factors were added to the Basic induction medium in different combinations: brain-derived neurotrophic factor (BDNF; 50 ng/ml), glial-derived neurotrophic factor (GDNF;10 ng/ml), neurturin (100 ng/ml), neurotrophin 3 (NT3; 50 ng/ml), and fibroblast growth factor 8 (FGF8; 100 ng/ml (all from Cytolab, Rehovot, Israel); transforming growth factor β3 (TGFβ3; 2 ng/ml), sonic hedgehog (Shh; 500 ng/ml, both from R&D); estrogen (0.1 μM, Sigma); and all-trans-retinoic acid (RA; 0.1 μM, Sigma).
Western blot: Total protein was extracted by suspending the harvested cells in lysis buffer containing 10 mM Tris base (U.S. Biochemical Corporation, Cleveland, Ohio), 5 mM EDTA (Merck, Whitehouse Station, N.J.), 140 mM sodium chloride (NaCl; BioLab, Jerusalem, Israel), 10 mM sodium fluoride (NaF; Sigma), 0.5% NP 40 (U.S. Biochemical Corporation), and 1 μM phenylmethylsulfonyl fluoride (PMSF; Sigma). Following incubation on ice for 30 minutes, the mixture was centrifuged and the supernatants were collected. Protein content was determined by the BCA protein assay kit (Pierce, Rockford, Ill.). Twenty-five micrograms of protein from each sample were subjected to sodium dodecyl-sulfate (SDS)-polyacrylamide gel electrophoresis (PAGE) (12.5% acrylamide), followed by electrophoretic transfer to nitrocellulose membrane (Schleicher & Schuell, Dassel, Germany). Membranes were probed by mouse anti-TH (1:10,000, Sigma) and mouse anti β-actin (1:10,000, Chemicon, Billerica, Mass.) and then by goat anti-mouse horseradish peroxidase conjugated antibody (1:10,000) (Jackson, West Grove, Pa.) and rabbit anti-emerin (1:5,000, Santa Cruz Biotechnology, Santa Cruz, Calif.), followed by goat anti-rabbit horseradish peroxidase conjugated secondary antibody (1:10,000, Sigma). Adequate controls included HeLa cells (ATCC, Manassas, Va.) as negative control and neuroblastoma M17 cells (BE (2)-M17, ATCC) as positive control. Proteins of interest were detected using the enhanced Super Signal® chemiluminescent detection kit (Pierce).

human MSCs [2] = assay: Immunocytochemistry for neuronal markers Tuj1 and NeuN; type: cell-based
Procedure: Induction of differentiation: The differentiation protocol was composed of 2 steps. In step 1, cells were transferred to serum-free medium (DMEM) supplemented with 2 mM glutamine, 100 μg/ml streptomycin, 100 units/ml penicillin, 12.5 units/ml nystatin (Biological Industries), N2 supplement (Invitrogen, New Haven, Conn.) and 20 ng/ml fibroblast growth factor 2 and epidermal growth factor (both from R&D Systems, Minneapolis, Minn.) for 48-72 hours. In step 2, the medium was changed to Basic induction medium containing Neurobasal, B27 (both from Invitrogen), in addition to 1 mM dibutyryl cyclic AMP (dbcAMP), 3-isobutyl-1-methyl-xanthine (IBMX), and 200 μM ascorbic acid (all from Sigma, St Louis, Mo.). […] Cells were photographed with a fluorescence Olympus IX70-[…] microscope with a fluorescent light source (excitation wavelength, 330-385 nm; barrier filter, 420 nm) and a U-MNU filter cube (Olympus, Center Valley, Pa.).

B1: brain-derived neurotrophic factor (protein, UniProt P23560 19-247, looked up)
Neurotrophic factor BDNF …: APMKEANIRGQGGLAYPGVRTHGTLESVNGPKAGSRGLTSLADTFEHVIEELLDEDQKVRPNEENNKDADLYTSRVMLSSQVPLEPPLLFLLEEYKNYLDAANMSMRVRRHSDPARRGELSVCDSISEWVTAADKKTAVDMSGGTVTVLEKVPVSKGQLKQYFYETKCNPMGYTKEGCRGIDKRHWNSQCRTTQSYVRALTMDSKKRIGWRFIRIDTSCVCTLTIKRGR
notes: brain-derived neurotrophic factor (50 ng/ml) added to the Basic induction medium
- TH protein expression level normalized to actin (human MSCs [1]; listed as BDNF): directly affected the TH protein expression level
- TH protein expression level normalized to actin (human MSCs [1]; listed as BDNF alone): significant results
- NeuN staining (human MSCs [2]): stained positive
- Tuj 1 expression (human MSCs [2]; versus untreated MSCs): higher levels
